Data set [1] deals with HctA (Chlamydia trachomatis L2). Kind of data set: BLI. The settings on record: BLI (Octet QKe, Ni-NTA sensors, His-protein immobilized): 0.1 M phosphate, 0.15 M NaCl, pH 7.2; nucleic acid 720, 240, 80 nM; temperature not stated. On the technique in general: BLI is a label-free optical method that tracks binding on a fibre tip over time.
In data set [2] the test system is DdbA (Chlamydia trachomatis L2). Nature of the data set: BLI. The note with it: BLI (Octet QKe, Ni-NTA sensors, His-protein immobilized): 0.1 M phosphate, 0.15 M NaCl, pH 7.2; nucleic acid 720, 240, 80 nM; temperature not stated.

By Kd is commonly meant the concentration at which binding is half-saturated. Low values mean higher affinity, high ones lower affinity. dsDNA oligo 60% GC: the results for the Kd in data set [1] and in data set [2] were 2.3 nM and 7.3 nM, respectively.
